Measurements as given in patent US20090170126A1.
Each block holds one molecule with its values, some of them ahead of it. Ends that are not written are not given here.

How the values were obtained:
[1] = target: commercially available anti-prostasin mouse monoclonal antibody (BD Biosciences, catalog No. 612173); test: competitive immunoassay, commercial monoclonal antibody-immobilized plate; competitor POD-labeled recombinant full-length prostasin 6.4 µg/mL; unlabeled recombinant full-length prostasin 50 ng/mL
[2] = target: commercially available anti-prostasin mouse monoclonal antibody (BD Biosciences, catalog No. 612173); test: competitive immunoassay, commercial monoclonal antibody-immobilized plate; competitor POD-labeled recombinant full-length prostasin 6.4 µg/mL; unlabeled recombinant full-length prostasin 5 ng/mL
[3] = target: commercially available anti-prostasin mouse monoclonal antibody (BD Biosciences, catalog No. 612173); test: competitive immunoassay, commercial monoclonal antibody-immobilized plate; competitor POD-labeled recombinant full-length prostasin 6.4 µg/mL; unlabeled recombinant full-length prostasin 10 ng/mL
[4] = target: commercially available anti-prostasin mouse monoclonal antibody (BD Biosciences, catalog No. 612173); test: competitive immunoassay, commercial monoclonal antibody-immobilized plate; competitor POD-labeled recombinant full-length prostasin 6.4 µg/mL; unlabeled recombinant full-length prostasin 100 ng/mL
[5] = target: commercially available anti-prostasin mouse monoclonal antibody (BD Biosciences, catalog No. 612173); test: competitive immunoassay, commercial monoclonal antibody-immobilized plate; competitor POD-labeled recombinant full-length prostasin 6.4 µg/mL; unlabeled recombinant full-length prostasin 25 ng/mL
[6] = target: commercially available anti-prostasin mouse monoclonal antibody (BD Biosciences, catalog No. 612173); test: competitive immunoassay, commercial monoclonal antibody-immobilized plate; competitor POD-labeled recombinant full-length prostasin 6.4 µg/mL; unlabeled recombinant full-length prostasin 0 ng/mL
[7] = target: affinity-purified antibody (a); test: antibody (a)-immobilized plate; POD-labeled peptide (a) 0.20 µg/mL; unlabeled partial peptide (a) 0 ng/mL
[8] = target: affinity-purified antibody (a); test: antibody (a)-immobilized plate; POD-labeled peptide (a) 0.15 µg/mL; competitor unlabeled partial peptide (a) 50 ng/mL
[9] = target: affinity-purified antibody (a); test: antibody (a)-immobilized plate; POD-labeled peptide (a) 0.20 µg/mL; competitor unlabeled partial peptide (a) 50 ng/mL
[10] = target: affinity-purified antibody (a); test: difference of absorbance between 0 and 50 ng/mL unlabeled partial peptide (a); antibody (a)-immobilized plate; POD-labeled peptide (a) 0.20 µg/mL
[11] = target: affinity-purified antibody (a); test: difference of absorbance between 0 and 50 ng/mL unlabeled partial peptide (a); antibody (a)-immobilized plate; POD-labeled peptide (a) 0.10 µg/mL
[12] = target: affinity-purified antibody (a); test: antibody (a)-immobilized plate; POD-labeled peptide (a) 0.10 µg/mL; unlabeled partial peptide (a) 0 ng/mL
[13] = target: affinity-purified antibody (a); test: antibody (a)-immobilized plate; POD-labeled peptide (a) 0.10 µg/mL; competitor unlabeled partial peptide (a) 50 ng/mL
[14] = target: affinity-purified antibody (a); test: antibody (a)-immobilized plate; POD-labeled peptide (a) 0.25 µg/mL; competitor unlabeled partial peptide (a) 50 ng/mL
[15] = target: affinity-purified antibody (a); test: antibody (a)-immobilized plate; POD-labeled peptide (a) 0.25 µg/mL; unlabeled partial peptide (a) 0 ng/mL
[16] = target: affinity-purified antibody (a); test: antibody (a)-immobilized plate; POD-labeled peptide (a) 0.025 µg/mL; unlabeled partial peptide (a) 0 ng/mL
[17] = target: affinity-purified antibody (a); test: difference of absorbance between 0 and 50 ng/mL unlabeled partial peptide (a); antibody (a)-immobilized plate; POD-labeled peptide (a) 0.15 µg/mL
[18] = target: affinity-purified antibody (a); test: difference of absorbance between 0 and 50 ng/mL unlabeled partial peptide (a); antibody (a)-immobilized plate; POD-labeled peptide (a) 0.25 µg/mL
[19] = target: affinity-purified antibody (a); test: antibody (a)-immobilized plate; POD-labeled peptide (a) 0.05 µg/mL; competitor unlabeled partial peptide (a) 50 ng/mL
[20] = target: affinity-purified antibody (a); test: difference of absorbance between 0 and 50 ng/mL unlabeled partial peptide (a); antibody (a)-immobilized plate; POD-labeled peptide (a) 0.025 µg/mL
[21] = target: affinity-purified antibody (a); test: difference of absorbance between 0 and 50 ng/mL unlabeled partial peptide (a); antibody (a)-immobilized plate; POD-labeled peptide (a) 0.05 µg/mL
[22] = target: affinity-purified antibody (a); test: antibody (a)-immobilized plate; POD-labeled peptide (a) 0.025 µg/mL; competitor unlabeled partial peptide (a) 50 ng/mL
[23] = target: affinity-purified antibody (a); test: antibody (a)-immobilized plate; POD-labeled peptide (a) 0.15 µg/mL; unlabeled partial peptide (a) 0 ng/mL
[24] = target: affinity-purified antibody (a); test: antibody (a)-immobilized plate; POD-labeled peptide (a) 0.05 µg/mL; unlabeled partial peptide (a) 0 ng/mL
[25] = target: affinity-purified antibody (c); test: competitive immunoassay, antibody (c)-immobilized plate; competitor POD-labeled partial peptide (c) 0.35 µg/mL; unlabeled peptide (c) 0 ng/mL
[26] = target: affinity-purified antibody (c); test: competitive immunoassay, antibody (c)-immobilized plate; competitor POD-labeled partial peptide (c) 0.35 µg/mL; unlabeled peptide (c) 25 ng/mL
[27] = target: affinity-purified antibody (c); test: competitive immunoassay, antibody (c)-immobilized plate; competitor POD-labeled partial peptide (c) 0.35 µg/mL; unlabeled peptide (c) 10 ng/mL
[28] = target: affinity-purified antibody (c); test: competitive immunoassay, antibody (c)-immobilized plate; competitor POD-labeled partial peptide (c) 0.35 µg/mL; unlabeled peptide (c) 100 ng/mL
[29] = target: affinity-purified antibody (c); test: competitive immunoassay, antibody (c)-immobilized plate; competitor POD-labeled partial peptide (c) 0.35 µg/mL; unlabeled peptide (c) 50 ng/mL
[30] = target: affinity-purified antibody (c); test: competitive immunoassay, antibody (c)-immobilized plate; competitor POD-labeled partial peptide (c) 0.35 µg/mL; unlabeled peptide (c) 5 ng/mL
[31] = target: affinity-purified antibody (e); test: competitive immunoassay, antibody (e)-immobilized plate; competitor POD-labeled partial peptide (e) 0.30 µg/mL; unlabeled peptide (e) 5 ng/mL
[32] = target: affinity-purified antibody (e); test: competitive immunoassay, antibody (e)-immobilized plate; competitor POD-labeled partial peptide (e) 0.30 µg/mL; unlabeled peptide (e) 0 ng/mL
[33] = target: affinity-purified antibody (e); test: competitive immunoassay, antibody (e)-immobilized plate; competitor POD-labeled partial peptide (e) 0.30 µg/mL; unlabeled peptide (e) 100 ng/mL
[34] = target: affinity-purified antibody (e); test: competitive immunoassay, antibody (e)-immobilized plate; competitor POD-labeled partial peptide (e) 0.30 µg/mL; unlabeled peptide (e) 50 ng/mL
[35] = target: affinity-purified antibody (e); test: competitive immunoassay, antibody (e)-immobilized plate; competitor POD-labeled partial peptide (e) 0.30 µg/mL; unlabeled peptide (e) 10 ng/mL
[36] = target: affinity-purified antibody (e); test: competitive immunoassay, antibody (e)-immobilized plate; competitor POD-labeled partial peptide (e) 0.30 µg/mL; unlabeled peptide (e) 25 ng/mL

Molecule: recombinant protein of full-length prostasin (prepared according to the method of Chen, L-M. et al., J. Biol. Chem., Vol. 276, pp. 21434-21442, 2001) (from UniProt Q16651 33-322) (enzyme)
absorbance (Abs) [1]: 1.09 Abs
absorbance (Abs) [2]: 1.21 Abs
absorbance (Abs) [3]: 1.19 Abs
absorbance (Abs) [4]: 1.22 Abs
absorbance (Abs) [5]: 1.12 Abs
absorbance (Abs) [6]: 1.18 Abs

B1: POD-labeled partial peptide (a) (peptide)
peptide: AHQLDSYSEDAKVSTLKDI
modifications: also: peroxidase (POD) label, attachment site not given here
absorbance (Abs) [7]: 2.4 Abs
absorbance (Abs) [8]: 1.25 Abs
absorbance (Abs) [9]: 1.5 Abs
ΔOD [absorbance (Abs)] [10]: 0.901 Abs
ΔOD [absorbance (Abs)] [11]: 0.596 Abs
absorbance (Abs) [12]: 1.41 Abs
absorbance (Abs) [13]: 0.809 Abs
absorbance (Abs) [14]: 1.99 Abs
absorbance (Abs) [15]: 2.91 Abs
absorbance (Abs) [16]: 0.418 Abs
ΔOD [absorbance (Abs)] [17]: 0.79 Abs
ΔOD [absorbance (Abs)] [18]: 0.925 Abs
absorbance (Abs) [19]: 0.477 Abs
ΔOD [absorbance (Abs)] [20]: 0.187 Abs
ΔOD [absorbance (Abs)] [21]: 0.338 Abs
absorbance (Abs) [22]: 0.231 Abs
absorbance (Abs) [23]: 2.04 Abs
absorbance (Abs) [24]: 0.815 Abs

Next, values leading:

absorbance (Abs) [25]: 1.09 Abs
absorbance (Abs) [26]: 1.12 Abs
absorbance (Abs) [27]: 1.11 Abs
absorbance (Abs) [28]: 0.943 Abs
absorbance (Abs) [29]: 0.938 Abs
absorbance (Abs) [30]: 1.08 Abs
B2: partial peptide (c) of prostasin (peptide)
peptide: NCLYNIDAKPEEPHFVQED

absorbance (Abs) [31]: 1.96 Abs
absorbance (Abs) [32]: 1.97 Abs
absorbance (Abs) [33]: 1.49 Abs
absorbance (Abs) [34]: 1.41 Abs
absorbance (Abs) [35]: 1.62 Abs
absorbance (Abs) [36]: 1.55 Abs
B3: partial peptide (e) of prostasin (peptide)
peptide: PQTQESQPDSN
